Laboratory results as given in the DeepSol protein solubility set.

Assay: soluble on expression in E. coli; label from the status in PepcDB or PDB records

Sequence	soluble on expression in E. coli
MPEVSVEKPLSVIPPEFCANANCPFSPKEISVLRIKVRGGVSKEEILQVNSASRPALPRQHSASTVSPLQSSSDELNNDSGIDNRTVGSPSTSEFSPRSTDLFVSPKSIIDEEPPHHPPPPPPVEEKLDQVLIPLKLSRGQDYAPIYRSLEQDTYYDQSPSESEKDEDLGLTNTKRYTENFRSVEKNQYMPVMSARVEATFKQPPPREGVKPFVSRAAQDITHNGESKVENIDLTIELNREQKATVTATKYPRTDFIMEDYHRPQTQILAPAPKKPNSTTRIYHAVDIPFDESPASYYPKQNNGYQRQRRYSASSASKQDGMFTLNVIMGSQPVHKGMGFSTVKRDERVIVESVIVGSPADKAGLLVGDTILSINGEEMSDKYQSGVTRILHEAARVGEADVLILRAPVPAPMLSKQMSTSSSNSSNYDKARSVFTENKSFDSYAEFKRKHTRTSRDSNSSNATRSSRDFNSLPRGTTAQSSLDRKRDTSLSSYRTAKDNFNSSSNRSSGRSEYGDYRVSNYQEKNAPGRLTDFVPEVDRRLSRREQSEEIYSRSQRDEEPRTIRNYHLSNENIARTNLNYDGRRDSEEESTTTTLKRTTLPRSGTAQWKNEYSDGEEVTEKLPVTSRDSSPLRSALKKSSHNYYHQSSDPVAPPPRRYYSTESLQLPKTSSYQRYSEEEDEEIEETYSSMRRHRQEIPRHVDEFHTVGSYGVMPQRSRSQQPARLPRYDSVPDDVDEVSGVSHRFYDRSGNHVRAPRERIHDIQIQRDYGDRAPSRDLDFVRNTYKWEEQLEDTKVTTTTKIYEKESRDWRDVINQQRQAAPGNSADRRGIAATSSSLSNLPSYINRRMEKEREREIEYRRDREYSMPPADPPVITEKYERDEYSRVEERTYPVPVARNKMRREETQMQSSLQQMHSQSSQKDDSVVAVSGKHRCAHCNEELGRGAAMIVESLNLFYHLACFKCYVCKTSLGSGATGADVRVRDGRLHCQTCYSNDRVQLSKV	not soluble
MGSDKIHHHHHHMTPSNVNSAGYKVIKISEFLSKKEYLDKKLVIPVYQRPYRWTAKNIVDLLSDLYYQCKRIGHRLGSPDNPDNFYRLGTVVLHQYVNNGSHQTNADLVDGQQRTLTLLLIMKSALESNRFTEQFNSFTPLEIELPDCSETQQNLSRNYELIRRHVNSPEFTSEVLDFLLNHCEVVQVTLHYLSEAFQFFDSQNARGLDLNPHDLLKAFHLREFPDSESLLKQNIVECWEQQNTKSLEVLFANYLYPIRRWSFGKQAVHFSKSEVNVFKGMKLDSDSYPFQENLRIVHNTVDSYNHHSHRLLDQQAMAYPFQLTQTLINGRRFFEWVTHYQEMIQPLLNKTIDSDSQKWLYTITSCHHTETGTSIKEVAKRPTAFNIFLVLNTDLPEYSYKGRSRRGDQYVRRMFDALVLCYYDRFGSHNLPRAIEYIFIWAYSLRLEKKSVYLESIEKHIGTDNLFERLQQSLSSVDFLSKPLPQPKKVDVTNVEGIKELFTKLGYLPT	not soluble
MRMRLMLLGGGNALGQALIRLGAEEDIAFLAPRPPENGWAPSSLTQLLDDHRPDALVNLAYYFDWFQAESVSEQRLAQQERAVERLAELCQHHQITLVQPSSYRVFDGSRATAYSEKDEPVPLGLRGQALWRIEQSVRAACPQHVLLRFGWLLDESIDGALGRFLTRAEQPQELLLADDRRGNPTPVDDAARVILSVLKQLDCNAPLWGTYHYAGNEATTPLALGQAILAEAGQYRQLAVQAPTPQAHAARPDASEEPQHAVLACKKILHTFGIKPRAWRAGLPPLLDRFYRHG	not soluble
AGQCSQNEYFDSLLHACIPCQLRCSSNTPPLTCQRYCNASVTNSVKG	soluble
MGSDKIHHHHHHMQSNRLTESSAEIHDMSLRIYQTPVQHLPEDLYVPPQAFAIWLEQFAGPLDFLLYLVKKNNVDLTRMPILPITEQYLAYISKLDTNHFELAGDYLLMASTLIAIKTELLLPMPEMPTDERDPKAELIERLEEYTQVKAASQRLDNLIRLERDVFLAMVSMPNQDIMNSELPSYSPTLLIDSLFKMQLQPDYQMHSIKVDAVPLADRIASISRQLSTDGARSFHELLDKAQGKIGVVVSFVAVLELIKRQLIGVVANNVDSGVSTATNADGSLSTHSDLLEKLTLEWLA	not soluble
MNLPGAAEPQGGNEIPEYTGVAWHYGQPLVEQRYFERSGGFVDRSHRGVLCISGEDAAVFLNNLVSQKLIDLPHPWAGEALDLDIQGHVVHHMEIIATDEVFYVHVPAAQLESLHTFFTRMIFWSKVTIEVIDAAVISVISAQHLDALVDVPLPEALAVSPVIDFSLPRRDILVPRASLMAVAASLQEHGFQPAGMMAYTAARVRSVQPVMSLDMDATTIPHEAASLIGRGDHIGAVHLNKGCYRGQETVGRVENLGRSPRVLVMVLIDGSAPEQPHPAAPLTAGGRTVGFLGTVVDDFELGPIGLAVVKRSALKSATLQAGDDVALSIDPDSLPHDDGEKAGRVAINKLRGL	not soluble
MFFIKDLSLNITLHPSFFGPRMKQYLKTKLLEEVEGSCTGKFGYILCVLDYDNIDIQRGRILPTDGSAEFNVKYRAVVFKPFKGEVVDGTVVSCSQHGFEVQVGPMKVFVTKHLMPQDLTFNAGSNPPSYQSSEDVITIKSRIRVKIEGCISQVSSIHAIGSIKEDYLGAI	soluble
MKLITAIVQDKDASSVANALVEHNIRATRLASAGGFLRSGNSTFLIAVKDDEVNTTIGVIKEHSKTRKQFVTPPVGLDMSIDTIGQPIEVEIGGATIIVQAIEDFQHF	not soluble
MKLRSVTYALFIAGLAAFSTSSLAAQSLRFGYETSQTDSQHIAAKKFNDLLQERTKGELKLKLFPDSTLGNAQAMISGVRGGTIDMEMSGSNNFAGLSPVMNLLDVPFLFRDTAHAHKTLDGKVGDDLKASLEGKGLKVLAYWENGWRDVTNSRAPVKTPADLKGLKIRTNNSPMNIAAFKVFGANPIPMPFAEVYTGLETRTIDAQEHPINVVWSAKFFEVQKFLSLTHHAYSPLLVVINKAKFDGLSPEFQQALVSSAQEAGNYQRKLVAEDQQKIIDGMKEAGVEVITDLDRKAFSDALGNQVRDMFVKDVPQGADLLKAVDEVQ	not soluble
MGSDKIHHHHHHMAERVLVPTQIGRGDRYYTYTELLAISRRFKQNPNELMVTWILRVYDQGGPALSLNSGELGLLGDLTHDAIFNYRCKALRGAGCQTLLSWLLQAWRQRWESSLHFEATELPFRPWTTMEEGIQLVRELGMIEWIYLDPEGPVDLAPEDVAFTQGLQRRLLTAAPSELRLSLVSLLVRGMTVLEAVMEIQTIADVGLLWRQSHPGRTKLMLGPNPTRKDLLGWLLSHGVPREQVDRQPTKVLLELYIKEAKRSRGHPNYGLNEEQPPPPPYSDQACGEEQPVRHD	not soluble
MAIIEEIFEDEEDQITKVDSLKKEGNNFFANGEFEKANEKYQEAIASCPPTSTEVQSILLSNSAAALIKLRKWESAVEAASKSIEIGATNEKALERRAFAYSNMSEKYENSIEDYKQLQESLPKRRVELDRKIAEINEKINNRNEAMKADVMEKLKGFGNFCLSPFGLSTDSFEMVPNGNGGFSVQMKGATNKQEGASQEKKEEENA	soluble
MDTEMLIDKYQLNDSEAAVLRFMDKNRDCLKSLGIREVAKASYVSTTAIINMAKKIGYSGYSELVFAYGNKHSSISFPENFSNEEKDEFIRLLSRYREKRIMVLGSGFSQNIANHFSEMLNLYGFRATANSHLEFLRENVEKDVLIFIVSNSGDTLRLAELVKLAKNHHIDLIAFVGEKKSKIGQLATLTISTETYNPQVVSEYQPNLFFGTALNQFELLLSEALKSIFI	not soluble
SLSDTLNSLQLGERPEGRTLLTASWVVGHKDGSHRLLKNGEVVFENGEILFVGHGFPGEVARRIDFGNALVSPGLIDLDALSDLDTTILGIDHHPGWAKGRVWPRSYVEAGPYEMYSAEELAFQKRFAFGQLLLNGITTAAPIASLFYRAWGETVAEFEAAADAAGELGLRVYLSPAFRSGGMVLEEPGRMFPVFDEERGFQGLKEAIAFIEKQSGRHGDLVRGMLAPDRVETSTLGLIERTDAAARELGCKFRLHMAQGVMEVDTVRKLHGSTAPVWLAKAGLLSERLIAPHATNATEEDLALYAENGVSIVHCPLVSSRGGSTLSSFSSCRKRGINIAMGTDTAPADMFMNLLVGLITCRINDGAPDQIRCADLFDAATLGGARALGRSDLGHLSSGARADIAVFDLDDAVMAPSVDPITTLVTGGSGKVTRAVFVDGRLSMRERQVAHIDMRRAREQAQAQFDRLIAKYPERSWANPPVSEIFPPSYQVEVAQHG	not soluble
MSLILKEGEVVFEVPDKLTVTKKDEVFYNPRMKTCRDISIAVIQAFLNLYHKRDKFYIADALAGSGIRGLRYAKELEFNGELKVFLNDINPKAYEKIINNAKLNEIENIDVFNEDANTFLSKHFRFFNVVDIDPFGSPAPYVEQAIRALVTRNGLLCLTATDTAALCGRSKKSCLRKYLAYPLFGRDCHEFALRVLVGYVMRMATKYELALKPVFCHATDHYVRVYLVTDRGAKRADKVFEMLGYVKDVNGIKIIKKFEEGYEKGFAGPLYIGNLYDKALVEEALKIAEKREFSERVLKILNAIKGESAINQVGCYDTHQIGKMLKISVPPMQDIINKLKEMGFNAVVTHYNPKGIKTDATLKNVIEAIYQCTKIREGHHHHHH	soluble
MEEPINVLLLGMDIGDTSDVSNKDAKRTDTIILANFDPITKEAKLISIPRDTRVKIGGKSQKINAAYPIGGEKLVKQLVGNILGVKVDYVVKVDYEGFRGIIDAIGGIDMYIEQDMNYDDPGQDLHIHFNKGETVHLDGKKAEEFFRWRKNNDGTGLVNGDVDRIKNQQKFINAVIDKVLSVSTITKIDSIAEILNKNIETNIPLDVTVAYGLKGLETDKNNIKMMTLPGEGKYVGNVSYYIPDEKATKELRSQLNSSNLSGRKNVIPSAARGDLSIKVLNCTKINGLAANVQKQLNENGYDKVDVGNGDPREKSEILIKDESSRAFMENDLKIENIKKGISSKYDGNGTYDVVILLGKDFKNFGEMKLEHHHHHH	soluble
MAHHHHHHMALRGVPIRLGVHRVGYTHPSTLPVPCAQRWDLRLARARIFQEYIEEKAPGAWQLEDERSMSPEFKTFTGYPMREMRPGYGQNLPDFIMKKRLPNNTHYELFARRDIPNEENAMYGKYLYDMTVHGTSLPSTYRMHKDINKAQRNDRKLSGNRFRVLCSSGAKKPPSGWEPIPDATEEEE	not soluble
AAQAEREELAAGRMPGGGPQGAPAAAGGGGVSHRAGSRDCLPPAACFRRRRLARRPGYMRSSTGPGIGFLSPAVGTLFRFPGGVSGEESHHSESRARQCGLDSRGLLVRSPVSKSAAAPTVTSVRGTSAHFGIQLRGGTRLPDRLSWPCGPGSAGWQQEFAAMDSSETLDASWEAACSDGARRVRAAGSLPSAELSSNSCSPGCGPEVPPTPPGSHSAFTSSFSFIRLSLGSAGERGEAEGCPPSREAESHCQSPQEMGAKAASLDGPHEDPRCLSQPFSLLATRVSADLAQAARNSSRPERDMHSLPDMDPGSSSSLDPSLAGCGGDGSSGSGDAHSWDTLLRKWEPVLRDCLLRNRRQMEVISLRLKLQKLQEDAVENDDYDKAETLQQRLEDLEQEKISLHFQLPSRQPALSSFLGHLAAQVQAALRRGATQQASGDDTHTPLRMEPRLLEPTAQDSLHVSITRRDWLLQEKQQLQKEIEALQARMFVLEAKDQQLRREIEEQEQQLQWQGCDLTPLVGQLSLGQLQEVSKALQDTLASAGQIPFHAEPPETIRSLQERIKSLNLSLKEITTKVCMSEKFCSTLRKKVNDIETQLPALLEAKMHAISGNHFWTAKDLTEEIRSLTSEREGLEGLLSKLLVLSSRNVKKLGSVKEDYNRLRREVEHQETAYETSVKENTMKYMETLKNKLCSCKCPLLGKVWEADLEACRLLIQSLQLQEARGSLSVEDERQMDDLEGAAPPIPPRLHSEDKRKTPLKESYILSAELGEKCEDIGKKLLYLEDQLHTAIHSHDEDLIQSLRRELQMVKETLQAMILQLQPAKEAGEREAAASCMTAGVHEAQA	soluble
